Laboratory results published in PMC6821830.

Molecular target: TopBP1 BRCT1-6 (UniProt Q92547)
Assay: GST-TopBP1 pull-down from cell extract, blot
Conditions: reference: wild-type MEFs, IR-treated; sites S29

binding against the reference: lost
Substance: E2F1 (mouse) (from UniProt Q61501) E2f1 S29A knock-in MEFs, IR-treated
